Laboratory results published in patent US20140186340A1, “Methods and Compositions for Normalization of Tumor Vasculature by Inhibition of LOXL2” (GILEAD BIOLOGICS, INC., priority 2011, published 2014).

B1: AB0023: mouse monoclonal antibody directed against LOXL2; heavy and light chain variable regions SEQ ID NO:1 and 2 (antibody, listed as Mus musculus, V domains shown)
VH: MEWSRVFIFLLSVTAGVHSQVQLQQSGAELVRPGTSVKVSCKASGYAFTYYLIEWVKQRPGQGLEWIGVINPGSGGTNYNEKFKGKATLTADKSSSTAYMQLSSLTSDDSAVYFCARNWMNFDYWGQGTTLTVSS
VL: MRCLAEFLGLLVLWIPGAIGDIVMTQAAPSVSVTPGESVSISCRSSKSLLHSNGNTYLYWFLQRPGQSPQFLIYRMSNLASGVPDRFSGSGSGTAFTLRISRVEAEDVGVYYCMQHLEYPYTFGGGTKLEIK

Assays:
[1] = system: SKOV3 ovarian carcinoma cells; assay: SKOV3 tumor xenograft, tumor growth; format: in vivo, mice; conditions: twice weekly i.p., AB0023 15 mg/kg, taxol 5 mg/kg, monitored 40 days, vs vehicle controls
Description: (§1) SKOV3 ovarian carcinoma cells were obtained from ATCC, Manassas, Va. 5×10^6 cells, suspended in 50% (v/v) Matrigel, were implanted subcutaneously in female athymic nude mice. After tumors attained a volume of 100 mm^3, the mice received twice weekly intra-peritoneal injections of vehicle, anti-LOXL2 antibody AB0023 (15 mg/kg), taxol (5 mg/kg) or a combination of taxol and AB0023. The experiment was terminated when tumors from control (vehicle-treated) animals attained an average volume of 1,000 mm^3, at which point the animals were sacrificed, tumors were removed and snap-frozen, and 5 μm thick frozen sections were prepared from the frozen tumors.
Female athymic nude mice were implanted with SKOV3 ovarian carcinoma cells which, when transplanted, form highly vascularized subcutaneous tumors. Expression of LOXL2 in these tumors was confirmed by immunohistochemistry; it was noted that most of the LOXL2 immunostaining was associated with vascular structures. When the average tumor volume of the population reached 100 mm^3, the mice were treated twice weekly with intra-peritoneal injections of the anti-LOXL2 antibody AB0023 (15 mg/kg), taxol (5 mg/kg) or a combination of AB0023 and taxol at the concentrations given above. Control mice received injection of vehicle (PBST). Tumor growth was monitored for 40 days.

SKOV3-derived tumors [2] = assay: SKOV3 xenograft, tumor hypoxia by carbonic anhydrase IX (CA9) levels; format: in vivo, mice; conditions: vs vehicle
Description: as §1
Sections were fixed with 4% paraformaldehyde and blocked using Peroxidazed 1 and Background Sniper (Biocare Medical, Concord, Calif.) before incubation with primary antibody. Anti-CA9 antibody (Abcam) was applied and Mach2 HRP-polymer (Biocare Medical) was used as secondary antibody. All sections were dehydrated through a series of ethanol dilutions and xylene, mounted using a resinous medium, and visualized using DAB chromogen.
Mice with SKOV3-derived tumors, as described in Example 4, were treated with AB0023 and/or taxol; and the effects on levels of carbonic anhydrase IX (CA9), a marker of hypoxia, were determined. […] Thus, inhibition of LOXL2 reduces vessel density and reduces hypoxia in tumors.

[3] = system: human umbilical vein endothelial cells (HUVEC); assay: Tube formation on Matrigel by HUVEC; format: cell-based; conditions: antibody 1 ug/ml, compared to control antibody AC-1; bFGF 5 ng/ml, 24 hours
Excerpt: (§2) HUVEC were isolated from umbilical veins and cultured as described. Gospodarowicz et al. (1983) J. Cell Biol. 97:1677-1685; Kigel et al. (2008) PLoS One 3:e3278. Recombinant human bFGF was produced and purified according to Tessler et al. (1990) J. Cell. Physiol. 145:310-317. For inhibition of LOXL2 expression by shRNA, lentiviruses directing expression of a LOXL2-targeted shRNA and a control shRNA were generated and used to infect HUVEC as described. Brekhman et al. (2009) BMC Cancer 9:415. The anti-LOXL2 monoclonal antibody (AB0023) has been described. See, e.g., Rodriguez et al. (2010) J. Biol. Chem. 285:20964-20974 and United States Patent Application Publication No. 2009/0053224 (Feb. 26, 2009).
Tube formation on Matrigel was carried out as described. Varshaysky et al. (2008) Cancer Res. 68:6922-2931. For shRNA inhibition HUVEC, infected with either shLOXL2-encoding or control lentivirus, were seeded in Matrigel-coated 48 well tissue culture plates (1.6×10^4 cells/well) and incubated with growth medium supplemented with bFGF (5 ng/ml) for 24 hours. […] Phase-contrast images were photographed at 63× magnification and bifurcations-per-field of tube structures in microscopic fields were quantified by manual counting.

[4] = system: bFGF-induced angiogenesis; assay: Matrigel plug assay, flow cytometric analysis; format: in vivo, mice; conditions: plugs harvested 7 days after implantation, vs vehicle
Description: The anti-angiogenic effects of systemic AB0023 administration in the Matrigel plug assay system were also assessed using flow cytometry to assay for cells expressing CD31, and for CD45-negative cells that express the vascular endothelial growth factor receptor VEGFR2 (an angiogenic marker). Analysis was conducted according to the method described by Adini et al. (2009) J. Immunol. Meth. 342:78-81.

SKOV3-derived tumors [5] = assay: SKOV3 xenograft, tumor vessel number by CD31 immunoreactivity; format: in vivo, mice; conditions: vs vehicle-treated animals; p<0.01
Description: as §1
(§3) For assessment of perfusion, the animals were injected intravenously with Hoechst 33342 (40 mg/kg) one minute prior to sacrifice and tumor removal was performed as described by Franco et al. (2006) Cancer Res. 66:3639-3648 and Rijken et al. (2000) Int. […] Bound anti-CD31 was detected with a goat anti-rat CY3-labeled antibody (Jackson Laboratories, Bar Harbor, Me.) and bound NG2 antibodies were detected with a Cy2-labeled anti-rabbit antibody (Jackson Laboratories, Bar Harbor, Me.). The stained sections were visualized using a confocal microscope or a Leica CTR 6000 microscope, and at least five microscopic fields were analyzed in each section. For analysis of perfusion, the coincidence of CD31-staining and Hoechst dye fluorescence was assessed. […]

[6] = system: bFGF-induced angiogenesis; assay: Matrigel plug assay, vessel counting and immunohistochemistry; format: in vivo, mice
Description: To determine if inhibition of LOXL2 could modulate angiogenesis in vivo, we examined the effects of the anti-LOXL2 antibody AB0023 on bFGF-induced angiogenesis, using a Matrigel plug assay. Kessler et al. (2004) Cancer Res. 64:1008-1015; Kibbey et al. (1992) J. Natl. Cancer Inst. 84:1633-1638.
For these experiments, either AB0023, at a concentration of 30 mg/kg, or vehicle (PBS+0.01% Tween-20) were injected intraperitoneally (30 mg/kg or equivalent volume) twice weekly into athymic female Ncr:Nu/Nu mice. After one week the mice were injected subcutaneously with 250 or 500 μl Matrigel (BD Biosciences, San Jose, Calif.) supplemented with 100 ng/ml human bFGF (Peprotech, Rocky Hill, N.J.) and 40 or 60 U heparin (Sigma, St. Louis, Mo.). Matrigel plugs were harvested after 10 days, excised together with attached skin, fixed in 10% neutral buffered formalin, and embedded in paraffin. Immunohistochemical analysis was performed on 5 μm serial sections with anti-CD31, anti-CD34, and anti-NG2 antibodies. 2 step sections separated by […] were analyzed per plug. Three representative 10× microscopic fields were selected per section per step, for a total of 6 fields per plug.
Immunohistochemical analysis was performed with anti-CD34 antibody on one representative section from each plug. Three representative 10× fields were selected per section for quantitation. For all IHC analysis of plugs, the mean area of signal was determined for each treatment group using Metamorph software (Molecular Devices).

SKOV3-derived tumors [7] = assay: SKOV3 xenograft, tumor perfusion by Hoechst 33342 / CD31 coincidence; format: in vivo; conditions: Hoechst 33342 40 mg/kg i.v. one minute before sacrifice; vs control mice; p<0.05
Description: as §1, §3

SKOV3-derived tumors [8] = assay: SKOV3 xenograft, pericytes by NG2 and CD31 staining; format: in vivo, mice; conditions: vs vehicle
Description: as §1, §3

[9] = system: human umbilical vein endothelial cells (HUVEC); assay: bFGF-induced HUVEC migration assay (transwell); format: cell-based; conditions: antibody 10 μg/ml, compared to control antibody AC-1; 5 hours
Description: To determine whether LOXL2 activity contributes to bFGF-induced migration of human umbilical vein endothelial cells (HUVEC), experiments were conducted in which expression of LOXL2 was inhibited using a LOXL2-targeted shRNA, and LOXL2 activity was inhibited using an anti-LOXL2 antibody.
as §2
For migration assays, HUVEC were seeded in transwell culture dishes (8 μm pores, 3×10^4 cells/well) coated with fibronectin (10 μg/ml, Biological Industries) in 200 μl of M199 medium containing 20% fetal calf serum. […] After 5 hours, cells that had migrated were fixed for 20 minutes with 4% paraformaldehyde, washed three times with PBS, stained with 0.05% crystal violet for 10 minutes, photographed, and counted.

[10] = independent experiment, vs vehicle

Row | Molecule | tumor growth (increase in tumor volume) [1] | effect on CA9 levels in tumors (SKOV3-derived tumors [2]; taxol 5 mg/kg twice weekly i.p.) | tube formation on Matrigel [3] | number of CD31+ cells in plugs (flow cytometry) [4] | number of VEGFR-2+/CD45- endothelial cells in plugs (flow cytometry) [4] | CD31 immunoreactivity in tumors (concentration of tumor-associated blood vessels) (SKOV3-derived tumors [5]) | number of blood vessels in Matrigel plugs (whole plug vessel counting) ([6]; 30 mg/kg i.p. twice weekly, athymic Ncr:Nu/Nu mice, plugs after 10 days, vs vehicle) | CD31 levels in Matrigel plug sections ([6]; 30 mg/kg i.p. twice weekly, plugs after 10 days, vs vehicle) | CD34 immunoreactivity in implanted plugs ([6]; further study, vs vehicle and control antibody AC-1) | staining for CD34 in Matrigel plugs [6, 10] | staining for pericyte marker NG2 in Matrigel plugs [6, 10] | tumor perfusion (Hoechst staining associated with CD31-positive vessels) (SKOV3-derived tumors [7]) | total number of NG2-expressing cells in tumors (SKOV3-derived tumors [8]) | concentration of vessel-associated pericytes in tumors (correspondence of CD31 and NG2 staining) (SKOV3-derived tumors [8]; p<0.01) | reduction in CA9 levels in tumors (SKOV3-derived tumors [2]; AB0023 15 mg/kg twice weekly i.p., p<0.05) | bFGF-induced cell migration of HUVEC [9]
1 | CC(=O)O[C@H]1C(=O)[C@@]2(C)[C@H]([C@H](OC(=O)c3ccccc3)[C@]3(O)C[C@H](OC(=O)[C@H](O)[C@@H](NC(=O)c4ccccc4)c4ccccc4)C(C)=C1C3(C)C)[C@]1(OC(C)=O)CO[C@@H]1C[C@@H]2O [taxol, paclitaxel, reference compound] | small, statistically insignificant inhibition | did not have a statistically significant effect |  |  |  |  |  |  |  |  |  |  |  |  |  | 
2 | B1 | did not inhibit tumor growth |  | inhibited | significantly reduced | significantly reduced | statistically significant decrease | significant reduction | reduced | loss of CD34 immunoreactivity | significant reduction | significant reduction | better perfusion | not significantly changed | significantly increase | 66% | inhibited
